For one experiment, the system named is psoriatic plaque. Briefly: Psoriasis Severity Index (PSI) score at the lesion biopsy site during treatment (Example 3). The class given is in vivo, human. The note with it: for PSI score: seen at weeks 8 and 12. How it is done: Three subjects with extensive psoriasis (>10% body surface area affected) were treated with […] of rhIL-11 subcutaneously every day for 8 weeks (Trepicchio et al. (1999) J. Clin. Invest. 104:1527-1537). The dose selection of rhIL-11 was based on the outcome of a clinical trial in subjects with Crohn's disease, where biological activity was observed. […] Upon enrollment, a psoriatic plaque was chosen for weekly assessment of lesion severity. […] In addition, before initiation of treatment, a 6-mm punch biopsy was taken from uninvolved skin at a location of the patent's choosing. Biopsies were equally divided for immunohistochemical analysis and for RNA preparation. Global clinical assessment of each subject was based on the Psoriasis Area and Severity Index (PASI) score in each subject before and during therapy as described previously (Gottlieb, et al. (1992) J. Invest. Dermatol. 98:302-309). The grading system used to measure local disease activity at the lesion biopsy site was the Psoriasis Severity Index (PSI). This index grades individual psoriasis lesions for scale, erythema, and induration on a 0- to 6- point scale for each parameter (0, absent, 1, trace, 2, mild, 3, mild to moderate, 4, moderate, 5, moderate to severe, and 6, severe). The final score is the sum of the individual parameters for a range of 0-18 (Fredriksson and Pettersson (1978) Dermatologica 157: 238-244; and Coven et al. (1997) Arch. Dermatol. 133:1514-1522). Histopathological assessment was performed on one-half of the 6-mm punch biopsy. […] Sections were reacted with antibodies to CD3, CD8, K16, Ki67, ICAM-1, or HLA-FR and processed for immunohistochemistry as described previously. Computer-assisted image analysis was used to quantify epidermal thickness and the number of CD3+, CD8+, or Ki67+ cells in tissue sections as described (Gottlieb et al. (1995) Nat. Med. 1:442-447).

In experiment [1] the test system is 165 genes differentially expressed between lesional and non-lesional skin. The experiment is described as follows: Gene chip / self-organizing map analysis of lesional skin over the course of drug treatment (Example 4). The class given is in vivo, human.
From the text: (§1) Patients with extensive plaque psoriasis (>10% body surface area affected) were considered eligible for entry into the study. […] At the start of enrollment, a psoriatic plaque was chosen for weekly assessment of lesion severity scores by the study coordinator. A 6 mm punch biopsy was taken of this lesional skin prior to rhIL-11 or cyclosporin treatment and at weeks 1, 4, 8 and 12 during IL-11 or cyclosporin treatment. In addition, prior to initiation of treatment, a 6 mm punch biopsy was taken from uninvolved skin at a location of the patient's choosing. Biopsies were equally divided for immunohistochemical analysis and for RNA preparation. Normal skin was obtained from healthy volunteers.
Total RNA was isolated from 6 mm full thickness skin biopsies using the RNeasy mini kit (Qiagen, Hilden, Germany). 2 μg total RNA was converted to cDNA by priming with an oligo-dT primer containing a T7 RNA polymerase promoter at the 5′ end. RNA was reverse transcribed with 200 units Superscript RT II at 50° C. for 1 hour in 1×first-strand buffer, 10 mM DTT and 0.5 mM each dNTP (Gibco BRL, Gaithersburg, Md.). […] RNA was concentrated and the amount measured using a spectrophotometer. […]
Experiment [2] has as its system S100A12, HBP17, K16, CCNF, SCYA2, PRKMK3, ID4, CST6 and TNXA mRNA. The experiment is described as follows: Quantitative RT-PCR of early responding genes in treated patients. The class given is in vivo, human. As to conditions: responding patients but not non-responding patients. The procedure:
Quantitative RT-PCR was performed as previously described (Trepicchio et al., supra). RNA samples from patient biopsies were treated with 10U of RQ1 DNase I (Promega) for 30 minutes at 37° C. […] Sequence-specific amplification was detected as an increased fluorescent signal of 6-FAM during the amplification cycle. Quantitation of gene-specific message levels was based on a comparison of the fluorescent intensity in the unknown mRNA sample to the fluorescent intensity from a standard curve of known mRNA levels. […] Levels of gene-specific messages were graphed as normalized message units as determined from the standard curve. […]
Quantitative measures of gene expression changes were statistically evaluated using the JMP statistical discovery software package (SAS Institute, Inc., Cary, N.C.). […] Differences between non-lesional to lesional skin were analyzed using 2-tailed paired T-test. […]
Changes in gene expression levels that precede clinical improvement may identify genes that play a potential causative role in disease progression or may be early markers of clinical efficacy. Quantitative RT-PCR was used to analyze gene expression changes for these early responding genes in a larger patient population. […]

For experiment [3], the system named is proinflammatory cytokine production. As to conditions: in part through inhibition of NF-κKB nuclear translocation; Trepicchio et al. (1997); cited from earlier work.
In the next experiment the test system is plaque psoriasis. Briefly: Response to therapy by clinical and histopathological criteria (Example 4). The class given is in vivo, human. The note with it: treated for 8 weeks.
The next experiment has as its system psoriasis patients. As to conditions: Trepicchio et al. (1999); cited from earlier work.
For experiment [4], the system named is marker genes in psoriatic lesional skin. Briefly: GeneChip marker analysis of lesional skin biopsies during rhIL-11 or cyclosporin A treatment (Example 3). Type of experiment: in vivo, human.
Method: Labeled RNA was prepared from clones containing a T7 RNA polymerase promoter site by incorporating labeled ribonucleotides in an in vitro transcription (IVT) reaction. Either biotin-labeled or fluorescein-labeled UTP and CTP (1:3 labeled to unlabeled) plus unlabeled ATP and GTP were used for the reaction with 2500 U of T7 RNA polymerase. Following the reaction, unincorporated nucleotide triphosphates were removed using a size-selective membrane (Mircrocon-100, Amicon, Beverly, Mass.). The total molar concentration of RNA was based on a measurement of the absorbance at 260 nm. Following quantitation of RNA amounts, RNA was fragmented randomly to an average length of approximately 50 bases by heating at 94° C. in 40 mM Tris-acetate pH 8.1, 100 mM potassium acetate, 30 mM magnesium acetate, for 30 to 40 min. Fragmentation reduces possible interference from RNA secondary structure, and minimizes the effects of multiple interactions with closely spaced probe molecules. For material made directly from cellular RNA, cytoplasmic RNA was extracted from cells by the method of Favaloro et al. ((1980) Methods Enzymol. 65: 718-749), and poly (A) RNA was isolated with an oligo dT selection step (PolyAtract, Promega, Madison, Wis.). […] The total molar concentration of labeled cRNA was determined from the absorbance at 260 nm and assuming an average RNA size of 1000 ribonucleotides. […]
The hybridization solutions contained 0.9 M NaCl, 60 mM NaH2PO4, 6 mM EDTA, and 0.005% Triton X-100, adjusted to pH 7.6 (referred to as 6×SSPE-T). […] When biotin-labeled RNA was used, the hybridized RNA was stained with a streptavidin-phycoerythrin conjugate (Molecular Probes, Eugene, Oreg.) prior to reading. […] The arrays were read using a scanning confocal microscope made for Affy metrix by Molecular Dynamics (commercially available through Affymetrix, Santa Clara, Calif.) The scanner uses an argon ion laser as the excitation source, with the emission detected by a photomultiplier tube through either a 530 nm bandpass filter (fluorescein), or a 560 nm longpass filter (phycoerythrin). […]

From the text for plaque psoriasis: as §1
Sections were reacted with antibodies to CD3, CD8, keratin 16, Ki67, ICAM-1, or HLA-DR and processed for immunohistochemistry as previously described (Trepicchio et al., supra). Computer-assisted image analysis was used to quantify epidermal thickness and the number of CD3+, CD8+, or Ki67+ cells in tissue sections as described. The grading system used to measure clinical disease activity was the PSI score, described above.
RhIL-11 was administered to patients by a subcutaneous route at either a dose of 5 ug/kg/day or a single 1 mg or 2 mg dose administered once weekly. Cyclopsorin A was administered at a dose of 5 μg/kg/day (Gottlieb et al., supra).

B1: rhIL-11: recombinant human IL-11, experimental immune modulatory cytokine (protein, UniProt P20809 22-199, looked up)
Interleukin-11: PGPPPGPPRVSPDPRAELDSTVLLTRSLLADTRQLAAQLRDKFPADGDHNLDSLPTLAMSAGALGALQLPGVLTRLRADLLSYLRHVQWLRRAGGSSLKTLEPELGTLQARLDRLLRRLQLLMSRLALPQPPPDPPAPPLAPPSSAWGGIRAAHAILGGLHLTLDWAVRGLLLLKTRL
B1: the “response to the treatment as assessed by PSI scores” value in the experiment with psoriatic plaque (Patient #202, rhIL-11) is listed as “did not respond to the treatment”. For the same molecule, the PSI scores in the experiment on psoriatic plaque (Patient #202, rhIL-11 treatment, throughout the course of the study) is recorded as 9-11. Moreover, the PSI score with psoriatic plaque (rhIL-11, first value of 'respectively' (Patient #203)) stood at 4; with psoriatic plaque (rhIL-11, second value of 'respectively' (Patient #208)) it was 5. In experiment [1] (FIG. 6, Group I), the “differentially regulated genes that returned to normal or uninvolved levels at time points preceding clinical improvement” value is 36 genes. Moreover, the “levels of expression of 36 genes including HBP17, SCYA2, PRKMK3, GNA15, PHB and MTX” value in experiment [1] (responding patients at week 1 of therapy, not in non-responding patients) is “change significantly”. Also, the “earliest time at which changes in gene expression were observed” value in experiment [2] is 1 week. Besides, in experiment [3], the proinflammatory cytokine production entry is reported as “reduce proinflammatory cytokine production”. Besides, the “patients considered to have responded to therapy” value in the experiment on plaque psoriasis is reported as 8 out of 15. Moreover, the “activity in psoriasis patients” value in the experiment on psoriasis patients was “improve clinical and histopathological scores”. In addition, in experiment [4] (Patient #202, rhIL-11, throughout the study), the “expression levels of the bulk of the markers” value is listed as “similarly unchanged”. In addition, in experiment [4] (Patients #203 and 208, rhIL-11, by week 8 compared to the beginning of the study), the “expression of the preponderance of the markers” value was “decrease in expression at least two-fold”. In addition, the “expression of the markers” value in experiment [4] (Patients #203 and 208, rhIL-11, by week 12 compared to the beginning of the study) was “nearly all of the markers decreased in expression”.

(Values after US20020037538A1, “Compositions, kits, and methods for identification, assessment, prevention, and therapy of psoriasis” (priority 2000, published 2002).)
